Results taken from paper PMC7641504 (International journal of mass spectrometry, 2020).

Target: the molecule itself
Assay: native MS

B1: yeast alcohol dehydrogenase (enzyme, UniProt P00330 1-348, looked up)
chain: MSIPETQKGVIFYESHGKLEYKDIPVPKPKANELLINVKYSGVCHTDLHAWHGDWPLPVKLPLVGGHEGAGVVVGMGENVKGWKIGDYAGIKWLNGSCMACEYCELGNESNCPHADLSGYTHDGSFQQYATADAVQAAHIPQGTDLAQVAPILCAGITVYKALKSANLMAGHWVAISGAAGGLGSLAVQYAKAMGYRVLGIDGGEGKEELFRSIGGEVFIDFTKEKDIVGAVLKATDGGAHGVINVSVSEAAIEASTRYVRANGTTVLVGMPAGAKCCSDVFNQVVKSISIVGSYVGNRADTREALDFFARGLVKSPIKVVGLSTLPEIYEKMEKGQIVGRYVVDTSK
stoichiometry N: 4

B2: rabbit muscle pyruvate kinase (enzyme)
chain: not shown
modifications: acetylation of the N-terminal serine (after removal of the initiator methionine)
stoichiometry N: 4
